Assay results published in the supplement of paper PMC12667976.
± gives the standard error.

B1: library; numbered along this chain (parent)
chain: MATDAALRRLLRLHRTEIAVAVDSAFPLLHALADHDVVPEDKFQETLHLKEKEGCPQAFHALLSWLLTQDSTAILDFWRVLFKDYNLERYGRLQPILDSFPKDVDLSQPRKGRKPPAVPKALVPPPRLPTKRKASEEARAAAPAALTPRGTASPGSQLKAKPPKKPESSAEQQRLPLGNGIQTMSASVQRAVAMSSGDVPGARGAVEGILIQQVFESGGSKKCIQVGGEFYTPSKFEDSGSGKNKARSSSGPKPLVRAKGAQGAAPGGGEARLGQQGSVPAPLALPSDPQLHQKNEDECAVCRDGGELICCDGCPRAFHLACLSPPLREIPSGTWRCSSCLQATVQEVQPRAEEPRPQEPPVETPLPPGLRSAGEEVRGPPGEPLAGMDTTLVYKHLPAPPSAAPLPGLDSSALHPLLCVGPEGQQNLAPGARCGVCGDGTDVLRCTHCAAAFHWRCHFPAGTSRPGTGLRCRSCSGDVTPAPVEGVLAPSPARLAPGPAKDDTASHEPALHRDDLESLLSEHTFDGILQWAIQSMARPAAPFPS

Variants of: B1
Assay: AIRE transcriptional activation functional score (insulin promoter-GFP; nonsense median 0, synonymous median 1) (normalised score); higher = higher AIRE activity (more reporter activation)
Details: with insulin promoter-GFP reporter in HEK293
Procedure: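 Deep mutational scan of full-length human AIRE (codon-optimized cDNA, DT-POPCode NNN libraries over three regions) integrated at a Bxb1 landing pad in HEK293 cells carrying an insulin core promoter-GFP reporter at a Flp-In site. Cells were sorted for the top 10% GFP about 14 days after transfection. Variant frequency log-ratios (select vs non-select, TileSeq) were rescaled so that the nonsense median is 0 and the synonymous median is 1, then averaged over biological replicates.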

| Variant | AIRE transcriptional activation functional score |
| --- | --- |
| A317I | 0.854 ± 0.16 |
| G477L | 0.273 ± 0.39 |
| A432K | 0.599 ± 0.19 |
| P124Y | 1.81 ± 0.44 |
| C223L | 0.844 ± 0.29 |
| L11Q | 0.602 ± 0.51 |
| L488C | 0.742 ± 0.29 |
| L13Y | 1.42 ± 0.61 |
| L397M | 0.0442 ± 0.18 |
| S372N | 1.2 ± 0.039 |
| Q346G | 1.13 ± 0.082 |
| D526I | 0.298 ± 0.072 |
| A482V | 1.23 ± 0.32 |
| L63S | -0.272 ± 0.55 |
| S135T | 2.07 ± 0.43 |
| V345R | 1.14 ± 0.29 |
| P129Q | 0.651 ± 0.14 |
| P129W | -0.183 ± 0.087 |
| P129N | 0.901 ± 0.6 |
| G251Q | 0.448 ± 0.19 |
| A186Y | -0.165 ± 0.23 |
| A186V | -0.207 ± 0.24 |
| H415T | 0.92 ± 0.39 |
| P148H | 0.972 ± 0.24 |

| Variant | AIRE transcriptional activation functional score |
| --- | --- |
| V38D | -0.427 ± 0.2 |
| A31W | -0.0372 ± 0.065 |
| P27I | 0.28 ± 0.099 |
| P27L | 0.398 ± 0.14 |
| A202L | 0.939 ± 0.17 |
| T151F | 1.76 ± 0.23 |
| G227A | 0.503 ± 0.21 |
| Q69L | -0.119 ± 0.37 |
| S521K | -0.211 ± 0.063 |
| S521V | 0.258 ± 0.23 |
| T3M | 1.74 ± 0.052 |
| S411P | 1.08 ± 0.49 |
| L414W | 0.979 ± 0.16 |
| L385K | 0.616 ± 0.16 |
| L385N | 0.689 ± 0.048 |
| W455Q | 1.09 ± 0.043 |
| E508R | 0.154 ± 0.21 |
| G178N | 0.294 ± 0.24 |
| K165P | -0.251 ± 0.2 |
| K165W | 1.06 ± 0.12 |
| P460F | 0.995 ± 0.098 |
| P460Q | 0.787 ± 0.069 |
| A193C | 1.39 ± 0.034 |
| G305S | 0.9 ± 0.29 |

| Variant | AIRE transcriptional activation functional score |
| --- | --- |
| S518T | 1.51 ± 0.17 |
| Q57P | -0.527 ± 0.52 |
| S217A | 0.4 ± 0.1 |
| S217R | 0.942 ± 0.35 |
| R190N | 1.15 ± 0.13 |
| H48T | 0.372 ± 0.13 |
| E88L | 0.861 ± 0.31 |
| V420F | 1.03 ± 0.27 |
| A117H | 1.22 ± 0.48 |
| P162W | 1.26 ± 0.46 |
| A352R | 0.916 ± 0.21 |
| A61W | 1.46 ± 0.13 |
| A145C | 1.07 ± 0.26 |
| A343Y | 1.09 ± 0.17 |
| H292N | 1.03 ± 0.019 |
| E136C | 1.22 ± 0.3 |
| C311P | 1.34 ± 0.12 |
| A500M | 0.733 ± 0.036 |
| G438Q | 1.23 ± 0.14 |
| G438S | 1.24 ± 0.22 |
| R8W | -0.126 ± 0.086 |
| G382L | 0.669 ± 0.41 |
| G382C | 0.802 ± 0.23 |
| L177R | 0.707 ± 0.43 |

| Variant | AIRE transcriptional activation functional score |
| --- | --- |
| L177Q | 0.719 ± 0.33 |
| L177T | 0.252 ± 0.31 |
| G313K | 0.717 ± 0.071 |
| R203F | 0.572 ± 0.21 |
| A121I | 0.906 ± 0.4 |
| C457Y | 0.105 ± 0.083 |
| C457R | -0.0861 ± 0.31 |
| V487Q | 0.492 ± 0.13 |
| P381M | 1.06 ± 0.044 |
| F59E | 0.561 ± 0.19 |
| A134E | -0.378 ± 0.22 |
| A140W | 1.46 ± 0.073 |
| A140H | 1.37 ± 0.089 |
| D103L | 0.32 ± 0.57 |
| P254A | 0.885 ± 0.26 |
| G197T | 0.444 ± 0.2 |
| A413L | 1.43 ± 0.2 |
| G218C | 0.887 ± 0.22 |
| C437W | 0.0698 ± 0.029 |
| R378V | 0.869 ± 0.27 |
| P125Y | 0.77 ± 0.17 |
| G306I | 0.377 ± 0.19 |
| G306K | 0.811 ± 0.29 |
| S220R | 1.06 ± 0.37 |

| Variant | AIRE transcriptional activation functional score |
| --- | --- |
| S220G | 0.764 ± 0.19 |
| K243H | 1.02 ± 0.046 |
| V192S | 0.697 ± 0.32 |
| V199Q | 0.755 ± 0.36 |
| R15A | -0.222 ± 0.32 |
| R15S | -0.0525 ± 0.75 |
| R15G | -0.349 ± 0.32 |
| R149Q | 1.71 ± 0.2 |
| H14M | -0.84 ± 0.27 |
| L158A | 0.834 ± 0.42 |
| I224L | 0.689 ± 0.26 |
| I224G | 0.296 ± 0.28 |
| Q358W | 1.27 ± 0.13 |
| L409E | 0.899 ± 0.095 |
| I211K | 0.0368 ± 0.087 |
| I211G | 0.694 ± 0.11 |
| L146A | 0.454 ± 0.55 |
| Q534D | -0.117 ± 0.21 |
| T147E | 1.45 ± 0.37 |
| H60L | -0.135 ± 0.34 |
| H60G | 0.0323 ± 0.62 |
| R113W | 0.668 ± 0.047 |
| D36L | -0.0069 ± 0.61 |
| D36M | -0.672 ± 0.13 |

| Variant | AIRE transcriptional activation functional score |
| --- | --- |
| P331V | 1.21 ± 0.22 |
| D238F | 1.04 ± 0.14 |
| D238T | 0.755 ± 0.16 |
| L128Q | 0.496 ± 0.2 |
| D410M | 0.501 ± 0.1 |
| D410R | 0.412 ± 0.15 |
| G267T | 1.8 ± 0.042 |
| G267H | 1.38 ± 0.073 |
| D439H | 1.32 ± 0.28 |
| G240W | 1.09 ± 0.12 |
| A33I | -1.54 ± 0.91 |
| K245E | 0.245 ± 0.28 |
| D502H | 1.15 ± 0.094 |
| G408S | 1.03 ± 0.31 |
| S412T | 1.02 ± 0.18 |
| R433F | 0.678 ± 0.41 |
| V20F | 0.146 ± 0.077 |
| A160R | 1.01 ± 0.8 |
| A160F | 1.12 ± 0.29 |
| P115V | 1.21 ± 0.51 |
| E363V | 1.14 ± 0.11 |
| L327V | 0.621 ± 0.33 |
| S71M | 0.472 ± 0.059 |
| A2E | 1.14 ± 0.08 |

| Variant | AIRE transcriptional activation functional score |
| --- | --- |
| C472T | -0.165 ± 0.16 |
| C472W | -0.112 ± 0.06 |
| S195C | 0.945 ± 0.052 |
| A489M | 1.23 ± 0.08 |
| A489P | 1.01 ± 0.25 |
| A489Q | 0.0401 ± 0.2 |
| A489S | 0.687 ± 0.46 |
| A489T | 1.44 ± 0.15 |
| M536H | 1 ± 0.085 |
| L255W | 1.1 ± 0.054 |
| L255Y | 0.945 ± 0.21 |
| L255R | 0.419 ± 0.21 |
| L255C | 0.506 ± 0.13 |
| V362G | 1.02 ± 0.17 |
| A510T | 0.933 ± 0.29 |
| T130A | 1.78 ± 0.43 |
| K102I | 1.56 ± 0.26 |
| L470A | 1.02 ± 0.089 |
| N86G | -0.0879 ± 0.18 |
| N86L | 0.306 ± 0.53 |
| N86D | -1.05 ± 0.28 |
| N179S | 0.818 ± 0.51 |
| S153P | 1.7 ± 0.17 |
